T1: Boi1 SH3 (BOI1_YEAST), P38041
T1 chain: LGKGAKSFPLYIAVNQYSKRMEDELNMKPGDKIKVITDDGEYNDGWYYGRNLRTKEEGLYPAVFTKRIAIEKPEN

T2: Boi2 SH3 (BOI2_YEAST), P39969
T2 chain: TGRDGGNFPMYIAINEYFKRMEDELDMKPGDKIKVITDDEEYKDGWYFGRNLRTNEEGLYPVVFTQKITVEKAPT

T3: Rvs167 SH3 (RV167_YEAST), P39743
T3 chain: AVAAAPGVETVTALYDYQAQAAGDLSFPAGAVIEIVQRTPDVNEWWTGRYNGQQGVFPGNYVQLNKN

T4: Yfr024 SH3 (LSB3_YEAST), P43603
T4 chain: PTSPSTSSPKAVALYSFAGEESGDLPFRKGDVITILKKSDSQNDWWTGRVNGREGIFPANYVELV

T5: Yhr016c SH3 (YSC84_YEAST), P32793
T5 chain: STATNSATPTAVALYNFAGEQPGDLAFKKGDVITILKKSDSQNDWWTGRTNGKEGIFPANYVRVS


How the values were obtained:
Assay in all cases: SPOT array
[1] = target: T1, Boi1 SH3 (BOI1_YEAST), P38041
[2] = target: T2, Boi2 SH3 (BOI2_YEAST), P39969
[3] = target: T3, Rvs167 SH3 (RV167_YEAST), P39743
[4] = target: T4, Yfr024 SH3 (LSB3_YEAST), P43603
[5] = target: T5, Yhr016c SH3 (YSC84_YEAST), P32793

Row | Binder | normalised SPOT signal, Boehringer light units (BLU); mean over the file's lines of this peptide [1] | normalised SPOT signal, Boehringer light units (BLU); mean over the file's lines of this peptide [2] | normalised SPOT signal, Boehringer light units (BLU); mean over the file's lines of this peptide [3] | normalised SPOT signal, Boehringer light units (BLU); mean over the file's lines of this peptide [4] | normalised SPOT signal, Boehringer light units (BLU); mean over the file's lines of this peptide [5]
1 | TDYPFKPPKVNFTT [YDR059C 59-72] | 58.8 | 65.8 | 93.6 | 570 | 232
2 | TEAPMNPLKNREQM [YHR129C 114-127] | 1.9 | 56.4 | 21.5 | 395 | 319
3 | TDYPFKPPKISFTT [YBR082C 59-72] | 54.7 | 89.1 | 43.3 | 374 | 116
4 | TATPSSPKRMHSSI [YNL321W 116-129] | 50.9 | 36.1 | 81.7 | 534 | 244
5 | TDLPVNPPRDDKEW [YNR021W 264-277] | 88.1 | 46.1 | 56.5 | 94.9 | 119
6 | TDSPQLPSKDKSQE [YDL197C 472-485] | 116 | -0 | 95.6 | 4380 | 95.8

Next, values leading:

Row | normalised SPOT signal, Boehringer light units (BLU); mean over the file's lines of this peptide [1] | normalised SPOT signal, Boehringer light units (BLU); mean over the file's lines of this peptide [2] | normalised SPOT signal, Boehringer light units (BLU); mean over the file's lines of this peptide [3] | normalised SPOT signal, Boehringer light units (BLU); mean over the file's lines of this peptide [4] | normalised SPOT signal, Boehringer light units (BLU); mean over the file's lines of this peptide [5] | Binder
7 | 275 | 41.4 | 13200 | 30400 | 58900 | TAAPATPPRHISNN [YPR040W 50-63]
8 | 136 | 58.5 | 33.8 | 0 | 0 | TDGPIDPFKEPKTS [YPR018W 481-494]
9 | 69.1 | 36 | 122 | 5490 | 1780 | TDPPPQPRRLSDIV [YPR115W 471-484]

Source: paper PMC314469, “Protein Interaction Networks by Proteome Peptide Scanning” (PLoS Biology, 2004)
